Experimental data published in patent publication US20250326818A1 (UNIVERSIT T BASEL, published 2025).

Legend:
Assay in all cases: BLI (Octet), biotinylated CD123 ECD captured on streptavidin tips, hIL3 as analyte, level at 250 s normalised to loading
CD123 ECD wt = biological target: T1, CD123 ECD wt (human, UniProt P26951 19-305)
T1 construct: Recombinant extracellular domain; Biotinylated when captured for the hIL3 assay; also called CD123_WT; recombinant wildtype CD123
T1 sequence: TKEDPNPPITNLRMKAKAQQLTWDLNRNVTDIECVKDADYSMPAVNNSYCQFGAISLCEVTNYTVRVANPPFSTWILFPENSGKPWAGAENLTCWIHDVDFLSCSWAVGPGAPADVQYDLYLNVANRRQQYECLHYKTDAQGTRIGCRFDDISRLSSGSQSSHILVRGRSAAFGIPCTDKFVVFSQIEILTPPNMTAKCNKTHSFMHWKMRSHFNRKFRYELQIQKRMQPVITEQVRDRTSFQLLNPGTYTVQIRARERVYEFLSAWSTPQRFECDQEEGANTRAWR
Experimental: (§1) Binding of hIL3 (SinoBiological, PN: 11858-H08H) (analyte) to CD123 ECD wt. and variants (ligands) was performed using Streptavidin capture biosensor (SA) (Sartorius, PN: 18-5019). CD123 ECD wt. and variants were biotinylated using Biotinylation kit Type B (Abeam, PN: ab201796) following manufacturer instructions. Biotinylated CD123 ECD wt. and variants (ligands) were captured on SA tips for 1000 s to achieve a nm shift of 1.5 to 2 nm. Analyte hIL3 was titrated at 7 concentrations from 500 to 7.8 nM. Association to analyte was monitored for 300 s and dissociation for 120 s. Buffer only well was used as reference. No regeneration was performed, and a new set of tips was used for each biotinylated captured ligand. Data were analyzed using the Octet Data Analysis software HT 12.0. Due to the fast on/off nature of the interaction data were analyzed using Steady state analysis. Qualitative representation in FIG. 11 binding level were taken at 250 s association for all concentrations.

CD123 ECD S59E = biological target: T2, CD123 ECD S59E (human, UniProt P26951 19-305)
T2 construct: Recombinant ECD
T2 sequence: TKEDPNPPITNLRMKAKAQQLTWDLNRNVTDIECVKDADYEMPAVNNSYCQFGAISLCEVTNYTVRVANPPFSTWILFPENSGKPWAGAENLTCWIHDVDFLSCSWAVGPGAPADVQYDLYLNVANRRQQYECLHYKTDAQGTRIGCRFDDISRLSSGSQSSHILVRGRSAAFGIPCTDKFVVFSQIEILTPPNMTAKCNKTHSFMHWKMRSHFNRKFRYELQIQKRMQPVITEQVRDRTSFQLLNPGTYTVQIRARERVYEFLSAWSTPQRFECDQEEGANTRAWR
Experimental: as §1

CD123 ECD E51Q = biological target: T3, CD123 ECD E51Q (human, UniProt P26951 19-305)
T3 construct: Recombinant ECD
T3 sequence: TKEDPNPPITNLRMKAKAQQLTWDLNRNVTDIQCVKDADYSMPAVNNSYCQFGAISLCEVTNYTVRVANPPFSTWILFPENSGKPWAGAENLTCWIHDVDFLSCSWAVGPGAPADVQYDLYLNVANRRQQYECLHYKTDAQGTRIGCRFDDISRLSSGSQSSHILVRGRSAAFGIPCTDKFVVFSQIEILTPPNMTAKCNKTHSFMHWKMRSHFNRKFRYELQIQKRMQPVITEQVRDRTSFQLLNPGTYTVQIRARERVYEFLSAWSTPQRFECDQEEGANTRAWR
Experimental: as §1

CD123 ECD E51A = biological target: T4, CD123 ECD E51A (human, UniProt P26951 19-305)
T4 construct: Recombinant ECD
T4 sequence: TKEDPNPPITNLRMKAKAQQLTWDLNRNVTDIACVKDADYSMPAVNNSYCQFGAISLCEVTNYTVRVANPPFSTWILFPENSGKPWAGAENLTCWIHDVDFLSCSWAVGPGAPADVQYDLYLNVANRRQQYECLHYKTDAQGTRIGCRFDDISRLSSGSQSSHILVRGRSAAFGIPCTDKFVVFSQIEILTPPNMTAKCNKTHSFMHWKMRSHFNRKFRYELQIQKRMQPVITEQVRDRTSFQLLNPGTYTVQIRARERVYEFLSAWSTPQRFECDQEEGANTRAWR
Experimental: as §1

CD123 ECD S59R = biological target: T5, CD123 ECD S59R (human, UniProt P26951 19-305)
T5 construct: Recombinant ECD
T5 sequence: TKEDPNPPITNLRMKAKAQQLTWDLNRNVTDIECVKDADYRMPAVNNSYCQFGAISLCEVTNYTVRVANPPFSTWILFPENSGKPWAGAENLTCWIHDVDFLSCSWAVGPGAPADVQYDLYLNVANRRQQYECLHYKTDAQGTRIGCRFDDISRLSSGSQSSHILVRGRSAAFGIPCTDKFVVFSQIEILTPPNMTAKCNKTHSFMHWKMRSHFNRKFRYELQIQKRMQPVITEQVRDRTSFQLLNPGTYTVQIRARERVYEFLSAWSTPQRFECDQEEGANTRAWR
Experimental: as §1

CD123 ECD E51K = biological target: T6, CD123 ECD E51K (human, UniProt P26951 19-305)
T6 construct: Recombinant ECD
T6 sequence: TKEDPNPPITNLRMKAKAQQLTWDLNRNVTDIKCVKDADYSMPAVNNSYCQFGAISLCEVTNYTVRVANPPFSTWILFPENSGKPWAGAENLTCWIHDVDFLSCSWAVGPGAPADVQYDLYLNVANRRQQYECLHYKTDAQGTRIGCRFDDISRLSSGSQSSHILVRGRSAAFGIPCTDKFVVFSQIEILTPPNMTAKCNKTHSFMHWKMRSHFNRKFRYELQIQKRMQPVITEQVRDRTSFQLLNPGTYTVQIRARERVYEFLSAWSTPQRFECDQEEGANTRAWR
Experimental: as §1

binding result (CD123 ECD wt): binds
binding result (CD123 ECD S59E): binds
binding result (CD123 ECD E51Q): binds
binding result (CD123 ECD E51A): binds
binding result (CD123 ECD S59R): binds
binding result (CD123 ECD E51K): binds
B1: hIL3 (ligand, human, UniProt P08700 20-152, looked up)
chain: APMTQTTPLKTSWVNCSNMIDEIITHLKQPPLPLLDFNNLNGEDQDILMENNLRRPNLEAFNRAVKSLQNASAIESILKNLLPCLPLATAAPTRHPIHIKDGDWNEFRRKLTFYLKTLENAQAQQTTLSLAIF
notes: also called Interleukin-3
